Experimental findings from patent US10287572B2, “Protein scaffolds and methods of use” (REGENTS OF THE UNIVERSITY OF MINNESOTA, priority 2013, dated 2019) are described below.

For data set [1], the target named is soluble EGFR ectodomain (Homo sapiens, UniProt P00533). Kind of data set: Yeast-displayed Gp2 binding to soluble EGFR ectodomain. The following applies: 1 nM soluble EGFR ectodomain. How it is done: The plasmid containing the clone of interest was transformed into yeast using the Frozen EZ Transformation Kit II (Zymo Research Corp., Irvine, Calif.), plated on SD medium plates and then grown directly in SG medium at 30° C. for at least 12 hours to induce protein expression. Cells were pelleted and washed with PBSA (phosphate buffered saline with 0.1% bovine serum albumin) and resuspended in PBSA containing biotin conjugated target over a range of concentrations. […] The samples were incubated at 22° C. for an appropriate amount of time to reach 90% of the approach to equilibrium. After incubation, cells were washed and labeled with mouse anti-c-myc antibody (clone 9E10) for 10-15 minutes, washed, and labeled with fluorescein-conjugated goat anti-mouse antibody and Alexa Fluor 647-conjugated streptavidin for 10-15 minutes. Yeast were washed and Alexa Fluor 647 fluorescence was analyzed on a FACSCalibur flow cytometer (BD Biosciences, San Jose, Calif.). The relative fraction bound for cells displaying tGp2 was determined by subtracting background fluorescence of an unlabeled control and normalizing to the maximum saturated signal at high concentrations. The equilibrium dissociation constant, KD, was identified as the concentration where half-maximal binding occurred.

Data set [2] is described as follows: Circular dichroism thermal denaturation. Format: physicochemical. The following applies: ellipticity at 218 nm, 24-98 °C, PBS. How it is done:
Purified tGp2 was lyophilized and resuspended in PBS to a concentration of 0.3-0.9 mg mL^−1. Ellipticity was measured from 260 to 200 nm on a Jasco J-815 spectrophotometer (Jasco, Inc., Easton, Md.) in a quartz cuvette with 1 mm path length. Thermal denaturation was carried out by measuring the ellipticity at 218 nm from 24° C. to 98° C. and Tm was calculated from a standard two-state unfolding curve.

The target of data set [3] is T1, EGFR (Homo sapiens, UniProt P00533).
T1 construct: endogenous in cells; host or cells: A431, MDA-MB-231, MCF7
As to the kind of experiment: In vitro cell labeling with tGp2-EGFR-His6, flow cytometry. Format: cell-based. As to the method:
Cells were pelleted, washed with PBSA, and labeled with fluorescein-conjugated rabbit anti-His6 antibody for 15 minutes at 4° C. Cells were pelleted and washed, and analyzed on an Accuri C6 flow cytometer (BD Biosciences, San Jose, Calif.).
Cell lines were labeled as above with biotinylated tGp2-EGFR-His6. Except, Alexa Fluor 488-conjugated streptavidin was used as the secondary label.
Additionally, ligand specificity was examined through target blocking. […] Cells were pelleted, washed, and labeled with Alexa Fluor 488-conjugated streptavidin for 15 minutes. After washing, flow cytometry was used to compare fluorescence of blocked and unblocked samples.

Data set [4] deals with rabbit IgG. As to the kind of experiment: Equilibrium competition titration of soluble tGp2, rabbit IgG. Format: binding. The following applies: soluble protein, read-out: Affinity (KD) of soluble tGp2. As to the method: Soluble affinity of select tGp2 proteins was determined using equilibrium competition titration, as described previously (Lipovsek et al., J Mol Biol, 2007, 368:1024-1041). Briefly, the soluble tGp2 clone was allowed sufficient time to reach 90% equilibrium with biotin-conjugated target over a range of tGp2 concentrations. Yeast cells displaying the same tGp2 clone and yeast cells harboring no plasmid (to aid in pelleting) were added to the solution, and allowed to equilibrate for six days. Cells were washed, labeled for target binding and analyzed with flow cytometry, as above.

As for “GaE 2.3.3: EGFR-specific tGp2 scaffold; loop 1 SRGDSYW (SEQ ID NO:2), loop 2 PMYHIYY (SEQ ID NO:3), frame mutation W45R (KFWATVSRGDSYWFEVPVYAETLDEALELAERQYPMYHIYYVTRVRP)”, the “Binding of soluble EGFR ectodomain by displaying yeast” value in data set [1] was “effectively bind”. In data set [2], the “Melting temperature (Tm) by circular dichroism” value (“Melting temperature (Tm)” for short) stood at 81 °C. Also, the “Binding to human cancer cell lines” value in data set [3] (0 or 1 μM Gp2 anti-EGFR, flow cytometry) is reported as “binds to human cancer cell lines in an EGFR-dependent manner”. Besides, the “Blocking of labeled Gp2 binding by unlabeled Gp2” value in data set [3] (A431 cells, 1 μM unlabeled Gp2) is “blocks binding of labeled Gp2 to A431 cells”. The Kd in data set [3] (A431 cells, His tag, anti-His6-FITC, flow cytometry, read-out: Affinity for A431 cells (average of two experiments)) stood at 50 nM.
Turning to “GaR 3.2.3: Rabbit IgG-binding tGp2 clone; loop 1 HSVHGY (SEQ ID NO:44), loop 2 GNALGY (SEQ ID NO:45), E44F, W45G (KFWATVHSVHGYFEVPVYAETLDEALELAFGQYGNALGYVTRVRP)”, the “Melting temperature (Tm)” value in data set [2] worked out at 80 °C. In addition, the Kd in data set [4] is 1 nM.
Turning to “tGp2 wild type: Truncated gene protein 2 of T7 phage, 5.2 kDa, 45 amino acids, SEQ ID NO:1 (KFWATVESSEHSFEVPVYAETLDEALELAEWQYYPAGFEVTRVRP; Enterobacteria phage T7)”, in data set [2], the “Melting temperature (Tm)” value was determined as 67 °C.
